According to paper PMC2832003:
Values belong to the binder of their own block, whether it stands above or below them.

Legend:
[1] = biological target: T1, activin type IIB receptor (ActRIIB), coated on ELISA plates, Q13705; test: ELISA; competition: quantified conditioned media compete with biotinylated inhibin A for ActRIIB coated on the plate
[2] = biological target: T1, activin type IIB receptor (ActRIIB), …
[3] = biological target: T1, activin type IIB receptor (ActRIIB), …; test: ELISA; 50 ng ActRIIB dried in each well (20 mM HEPES pH 7.4); biotinylated inhibin A or activin A in TBST pH 7.4, 1.5 h, room temperature; streptavidin-HRP; standard binding curve
[4] = biological target: T1, activin type IIB receptor (ActRIIB), …; test: ELISA; competition: quantified conditioned media compete with biotinylated activin A for ActRIIB coated on the plate

IC50 [1]: 2.96 nM
IC50 of antagonism of activin A (0.4 nM) in the FSHβ-luciferase assay in LβT2 cells, with transfected betaglycan [2]: 0.27 nM
IC50 of antagonism of activin A (0.4 nM) in the FSHβ-luciferase assay in LβT2 cells, without betaglycan [2]: 0.31 nM
B1: α^HPWR−/βA mutant inhibin A, P05111 233-366; P08476 311-426 (complex)
chain 1: STPLMSWPWSPSALRLLQRPPEEPAAHANCHRVALNISFQELGWERWIVYPPSFIFHYCHGGCGLHIYSLLPGAQPCCAALPGTMRPLHVRTTSDGGYSFKYETVPNLLTQHCACI
chain 2: GLECDGKVNICCKKQFFVSFKDIGWNDWIIAPSGYHANYCEGECPSHIAGTSGSSLSFHSTVINHYRMRGHSPFANLKSCCVPTKLRPMSMLYYDDGQNIIKKDIQNMIVEECGCS

EC50 [3]: 2.73 nM
B2: biotinylated human inhibin A, P05111 233-366; P08476 311-426 (complex)
chain 1: STPLMSWPWSPSALRLLQRPPEEPAAHANCHRVALNISFQELGWERWIVYPPSFIFHYCHGGCGLHIPPNLSLPVPGAPPTPAQPYSLLPGAQPCCAALPGTMRPLHVRTTSDGGYSFKYETVPNLLTQHCACI
chain 2: GLECDGKVNICCKKQFFVSFKDIGWNDWIIAPSGYHANYCEGECPSHIAGTSGSSLSFHSTVINHYRMRGHSPFANLKSCCVPTKLRPMSMLYYDDGQNIIKKDIQNMIVEECGCS
modifications: here or on the partner: biotin (EZ-link Micro Sulfo-NHS-LC-biotinylation Kit), sites not stated | biotin (EZ-link Micro Sulfo-NHS-LC-biotinylation Kit), sites not stated

IC50 [1]: 5.55 nM
B3: wild type chicken inhibin A (α^Chwt/βA), P43031 217-329; P08476 311-426 (complex)
chain 1: SAVPWSPAALSLLQRPSEDVAAHTNCRRASLNISFEELGWDNWIVHPSSFVFHYCHGNCAEGHGLSHRLGVQLCCAALPGTMRSLRVRTTSDGGYSFKYETVPNILAQDCTCV
chain 2: GLECDGKVNICCKKQFFVSFKDIGWNDWIIAPSGYHANYCEGECPSHIAGTSGSSLSFHSTVINHYRMRGHSPFANLKSCCVPTKLRPMSMLYYDDGQNIIKKDIQNMIVEECGCS

IC50 [1]: 9.01 nM
B4: wild type human inhibin A (α^Hwt/βA), P05111 233-366; P08476 311-426 (complex)
chain 1: STPLMSWPWSPSALRLLQRPPEEPAAHANCHRVALNISFQELGWERWIVYPPSFIFHYCHGGCGLHIPPNLSLPVPGAPPTPAQPYSLLPGAQPCCAALPGTMRPLHVRTTSDGGYSFKYETVPNLLTQHCACI
chain 2: GLECDGKVNICCKKQFFVSFKDIGWNDWIIAPSGYHANYCEGECPSHIAGTSGSSLSFHSTVINHYRMRGHSPFANLKSCCVPTKLRPMSMLYYDDGQNIIKKDIQNMIVEECGCS

IC50 [1]: 128 nM
B5: α^Hext−/βA mutant inhibin A, P05111 233-366; P08476 311-426 (complex)
chain 1: STPLMANCHRVALNISFQELGWERWIVYPPSFIFHYCHGGCGLHIPPNLSLPVPGAPPTPAQPYSLLPGAQPCCAALPGTMRPLHVRTTSDGGYSFKYETVPNLLTQHCACI
chain 2: GLECDGKVNICCKKQFFVSFKDIGWNDWIIAPSGYHANYCEGECPSHIAGTSGSSLSFHSTVINHYRMRGHSPFANLKSCCVPTKLRPMSMLYYDDGQNIIKKDIQNMIVEECGCS
modifications: here or on the partner: disulfide-linked heterodimer; alpha-subunit N-glycosylated (CHO-expressed)

IC50 [4]: 4.14 nM
B6: wild type human activin A (βA/βA dimer), P08476 311-426 (complex)
chain: GLECDGKVNICCKKQFFVSFKDIGWNDWIIAPSGYHANYCEGECPSHIAGTSGSSLSFHSTVINHYRMRGHSPFANLKSCCVPTKLRPMSMLYYDDGQNIIKKDIQNMIVEECGCS

EC50 [3]: 1.1 nM
B7: biotinylated human activin A, P08476 311-426 (complex)
chain: GLECDGKVNICCKKQFFVSFKDIGWNDWIIAPSGYHANYCEGECPSHIAGTSGSSLSFHSTVINHYRMRGHSPFANLKSCCVPTKLRPMSMLYYDDGQNIIKKDIQNMIVEECGCS
modifications: here or on the partner: biotin (EZ-link Micro Sulfo-NHS-LC-biotinylation Kit), sites not stated
